± gives the uncertainty stated by the source.

Here are results for 167 variants from the Human Domainome abundance scans (Beltran et al. 2025).

Sequences and labels used below:
B1: Connector enhancer of kinase suppressor of ras 2, residues 9 to 71; numbered along this chain, Q8WXI2 (parent)
chain: SKWSPSQVVDWMKGLDDCLQQYIKNFEREKISGDQLLRITHQELEDLGVSRIGHQELILEAVD

The variants in the data set derive from B1. The experiment in a line: abundance fitness (aPCA) (normalised: wild type 0, dead -1); higher = more abundant; growth selection in yeast, the domain comes from the species named. The conditions noted are these: Homo sapiens.
In the case of D46Y, the abundance fitness is -0.194 ± 0.04.
With D46N the figure was -0.006 ± 0.036; with D46G, -0.075 ± 0.026.
With D46F, the abundance fitness is -0.097 ± 0.035.
The value for D46A was -0.054 ± 0.031.
With D46I, the abundance fitness was -0.178 ± 0.044.
In the case of K30E, the abundance fitness is -0.105 ± 0.038.
With K30C the figure was -0.097 ± 0.028; with K30N, -0.075 ± 0.057.
Take K30S: the abundance fitness was -0.087 ± 0.027.
Regarding K30M, the abundance fitness is -0.113 ± 0.041.
With K30D the figure was -0.225 ± 0.035; with K30A, -0.069 ± 0.027.
For E43M, the abundance fitness is -0.165 ± 0.042.
As to E43K, the abundance fitness was -0.003 ± 0.055.
The value for E43G was -0.131 ± 0.034; that for E43L was -0.41 ± 0.03.
With E43I the figure was -0.46 ± 0.045.
The value for E43N was -0.121 ± 0.035; that for E43C was -0.332 ± 0.036.
E43Y: the abundance fitness was -0.472 ± 0.044.
With Q20S the figure was -0.148 ± 0.024.
Turning to Q20C, the abundance fitness was -0.325 ± 0.042.
With Q20H the figure was 0.049 ± 0.032; with Q20N, -0.117 ± 0.043.
The value for Q20K was -0.148 ± 0.025; that for Q20A was -0.177 ± 0.028; that for G33E was -0.855 ± 0.092.
Regarding G33W, the abundance fitness was -0.216 ± 0.045.
G33S: the abundance fitness is -0.668 ± 0.04.
The value for G33T was -0.645 ± 0.046.
For G33C, the abundance fitness is -0.833 ± 0.07.
G33K: the abundance fitness is -0.462 ± 0.07.
The value for G33N was -0.947 ± 0.12; that for K2M was -0.121 ± 0.11.
Take K2C: the abundance fitness was -0.084 ± 0.029.
The value for K2R was -0.325 ± 0.052; that for K2N was -0.049 ± 0.034; that for K2I was -0.09 ± 0.027.
With K2H, the abundance fitness amounted to 0.047 ± 0.047.
The value for K2F was -0.025 ± 0.018; that for K2V was -0.133 ± 0.034; that for K2E was -0.29 ± 0.14.
Consider I39C, for which the abundance fitness was -0.416 ± 0.052.
For I39Y, the abundance fitness was -0.632 ± 0.064.
The value for I39D was -0.569 ± 0.075; that for I39W was -0.737 ± 0.04.
The value for L59A was -0.653 ± 0.032; that for L59Q was -0.646 ± 0.069.
The value for L59P was -0.608 ± 0.075; that for L59C was -0.557 ± 0.048; that for L59I was -0.241 ± 0.048.
Take L59D: the abundance fitness is -0.594 ± 0.042.
In the case of Q7P, the abundance fitness was -0.666 ± 0.057.
As for Q7L, the abundance fitness was -0.743 ± 0.033.
With Q7V the figure was -0.631 ± 0.032.
With Q7F the figure was -0.713 ± 0.064.
With Q7M, the abundance fitness was -0.12 ± 0.034.
In the case of Q7I, the abundance fitness is -0.748 ± 0.075.
With Q7G the figure was -0.457 ± 0.029.
The value for Q7Y was -0.777 ± 0.068; that for L57E was -0.446 ± 0.034.
With L57A the figure was -0.105 ± 0.026.
For the variant L57F, the abundance fitness is -0.553 ± 0.036.
In the case of L57D, the abundance fitness is -0.677 ± 0.064.
For the variant V8F, the abundance fitness is -0.861 ± 0.051.
Regarding V8P, the abundance fitness was -0.773 ± 0.052.
The value for V8W was -1.05 ± 0.083.
With V8S the figure was -0.749 ± 0.04; with V8G, -0.851 ± 0.049; with V8M, -0.771 ± 0.058.
Consider S6W, for which the abundance fitness was -0.291 ± 0.04.
For S6V, the abundance fitness was -0.076 ± 0.025.
Take S6A: the abundance fitness worked out at 0.036 ± 0.023.
Consider S6T, for which the abundance fitness came to 0.015 ± 0.033.
The value for V49Y was -1.07 ± 0.11; that for V49T was -0.857 ± 0.062.
The value for V49C was -0.374 ± 0.033; that for V49L was -0.621 ± 0.028.
Turning to V49D, the abundance fitness is -0.777 ± 0.051.
With V49Q the figure was -0.846 ± 0.065.
With V49F the figure was -0.866 ± 0.12; with V49A, -0.833 ± 0.044; with I58E, -0.584 ± 0.078.
Turning to I58Q, the abundance fitness is -0.696 ± 0.092.
The value for I58Y was -1.35 ± 0.46.
With I58N the figure was -0.851 ± 0.12; with I58H, -0.268 ± 0.29; with I58A, -0.799 ± 0.099.
Take E27G: the abundance fitness is -0.514 ± 0.026.
On to E27A, for which the abundance fitness is -0.075 ± 0.029.
With E27Q the figure was -0.101 ± 0.038; with E27P, -0.703 ± 0.065.
The value for E27D was -0.248 ± 0.041; that for E27M was -0.205 ± 0.058.
With E27C the figure was -0.406 ± 0.038; with E27I, -0.436 ± 0.17; with F26W, -0.785 ± 0.052.
Take F26P: the abundance fitness is -0.592 ± 0.063.
With R38C the figure was -0.189 ± 0.034.
Regarding R38F, the abundance fitness is -0.416 ± 0.049.
The value for R38D was -0.163 ± 0.05; that for R38P was -0.681 ± 0.055.
Consider R38L, for which the abundance fitness is -0.377 ± 0.029.
Regarding R38E, the abundance fitness is -0.302 ± 0.053.
On to R38K, for which the abundance fitness was -0.002 ± 0.033.
Regarding R38G, the abundance fitness was -0.106 ± 0.026.
The value for I52W was -0.174 ± 0.039; that for I52A was -0.011 ± 0.027.
The value for I52E was -0.058 ± 0.042; that for R51C was 0.082 ± 0.034; that for R51M was -0.042 ± 0.039.
Regarding R28T, the abundance fitness is -0.058 ± 0.032.
Regarding R28W, the abundance fitness was -0.638 ± 0.044.
With R28S the figure was -0.056 ± 0.026; with R28E, -0.1 ± 0.043; with R28V, -0.159 ± 0.031.
With R28D, the abundance fitness is -0.043 ± 0.052.
With R28L the figure was -0.15 ± 0.023.
With L36T the figure was -0.88 ± 0.06; with L36R, -0.82 ± 0.038.
With L36K the figure was -0.775 ± 0.075; with L36W, -1.04 ± 0.12; with L36F, -0.715 ± 0.091.
Regarding L36Q, the abundance fitness is -0.898 ± 0.087.
In the case of L15N, the abundance fitness was -0.512 ± 0.051.
With L15C, the abundance fitness was -0.552 ± 0.059.
Turning to L15Y, the abundance fitness was -0.636 ± 0.067.
The value for L15S was -0.539 ± 0.031.
The value for L15W was -0.266 ± 0.04; that for K13P was -0.895 ± 0.075.
With K13L the figure was -0.23 ± 0.024; with K13H, -0.13 ± 0.065.
For K13R, the abundance fitness was -0.003 ± 0.028.
With K13T the figure was -0.237 ± 0.046; with K13F, -0.375 ± 0.045.
The value for Q35C was -0.328 ± 0.061.
Q35E: the abundance fitness was -0.172 ± 0.057.
Take Q35L: the abundance fitness is -0.392 ± 0.039.
The value for Q35F was -0.33 ± 0.058.
The value for Q35D was -0.158 ± 0.05; that for Q35G was -0.485 ± 0.033.
As for S50K, the abundance fitness was 0.278 ± 0.29.
For the variant S50F, the abundance fitness is -0.139 ± 0.058.
As to S50I, the abundance fitness was -0.571 ± 0.26.
The value for S50C was -0.068 ± 0.067; that for S50T was 0.039 ± 0.055; that for P5M was -0.377 ± 0.044.
As for P5K, the abundance fitness is -0.514 ± 0.048.
The value for P5G was -0.37 ± 0.029; that for P5S was -0.007 ± 0.025.
Take P5A: the abundance fitness is -0.055 ± 0.04.
With P5Y the figure was 0 ± 0.051; with P5I, -0.233 ± 0.062.
With P5F the figure was -0.161 ± 0.047; with L37Y, -0.28 ± 0.043.
As to L37D, the abundance fitness was -0.254 ± 0.031.
Take L37E: the abundance fitness is -0.193 ± 0.031.
With L37R the figure was -0.145 ± 0.023; with L37N, -0.154 ± 0.047.
For Y22R, the abundance fitness was -0.728 ± 0.035.
The value for Y22P was -0.753 ± 0.08; that for Y22V was -0.806 ± 0.034.
With E45P the figure was -0.784 ± 0.052; with E45T, -0.034 ± 0.03.
Consider E45M, for which the abundance fitness is -0.066 ± 0.033.
The value for Q42V was -0.258 ± 0.024.
